In article PMC7958378:

Target: GmPUB13(252-630) (soybean (Glycine max))
Experiment: ITC

## Avr1d (purified protein for ITC and gel filtration) (natural protein)
  Kd: 0.089 µM
